Test [1] concerns the target T1, human TSLPR on Ba/F3-hTSLPR-hIL7Ra cells (human, UniProt Q9HC73 23-371).
T1 sequence (looked up): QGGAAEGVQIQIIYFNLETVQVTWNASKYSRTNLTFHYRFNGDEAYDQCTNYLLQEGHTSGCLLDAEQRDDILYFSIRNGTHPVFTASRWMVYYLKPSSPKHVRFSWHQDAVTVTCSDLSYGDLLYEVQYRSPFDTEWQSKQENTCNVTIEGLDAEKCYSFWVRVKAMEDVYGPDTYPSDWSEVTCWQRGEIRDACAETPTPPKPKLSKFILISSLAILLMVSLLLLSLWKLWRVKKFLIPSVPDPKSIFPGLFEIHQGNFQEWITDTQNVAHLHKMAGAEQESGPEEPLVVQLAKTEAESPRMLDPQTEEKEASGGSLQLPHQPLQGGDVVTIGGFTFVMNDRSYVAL
In words: cell-based or functional assay.

The target of test [2] is cynomolgus TSLPR on Ba/F3-cTSLPR-cIL7Ra cells (cynomolgus monkey). As to the kind of experiment: cell-based or functional assay.
In test [3] the target is T2, cTSLPR-Ig (cynomolgus monkey).
T2 construct: also called cyTSLP R-hIg P749; Mam-Trans[FlagPreProTrypsin]DELTA2_NHP[Ig]
In words: SPR BIAcore T100, cyTSLPR-hIg amine-coupled on CM5, antibody as analyte, bivalent analyte model, n = 6. The procedure:
The kinetic binding activities of the mouse anti human TSLPR antibody 13H5, chimeric anti-human TSLPR 13H5 antibody, rat anti-human TSLPR antibody 18B3, and mouse anti-human TSLPR antibody 70E8 against both human (hu) and cynomolgus monkey (cyno) TSLPR were measured by surface plasmon resonance using a BIAcore T100 system (BIAcore AB, Upsalla, Sweden). Approximately 70RUs of […] were immobilized via amine coupling chemistry onto a Sensor Chip CM5 (Research grade, BR-1006-68). HBS-EP buffer (BR-1006-69) was used as the running buffer with a flow rate of 30 μL/min. Antibodies at varying concentrations ranging from 0.01 to 600 nM were injected over the immobilized hu or cyno TSLP surfaces at a flow rate of 30 μL/min. Following each injection cycle the CM5 chip surface was regenerated using a series of solutions (10 mM Glycine pH 1.5 and 25 mM NaOH respectively) at a flow rate of 75 μL/min.
Background subtraction binding sensorgrams were used for analyzing the rate constant of association (ka) and dissociation (kd), and the equilibrium dissociation constant KD. The resulting data sets shown in Table 5 were fitted with a bivalent analyte model using the BlAevaluation software (version 1.0).
A general note: Surface plasmon resonance follows binding to a sensor surface in real time, without labels.

Test [4] concerns the target T2, cTSLPR-Ig. As to the kind of experiment: ELISA, plate coated with TSLPR 50 ng/well, HRP goat anti-mouse detection. The procedure:
The ELISA measures the EC50 of certain mouse anti-TSLPR antibodies generated according to Example 2 are reported on Table 4. The antibodies were purified from hybridoma supernatants, and his-hTSLPR or cTSLPR-Ig was used to determine binding affinity.
Coating of plates was performed as follows: TSLPR (50 ng per well) in PBS was incubated at 4° C. overnight. Plates were washed with 1 cycle (3 washes/cycle) on a Molecular Devices plate washer. Antibody was then titrated across a row of eight wells in the range of 3000 ng/mL to […] using serial 3-fold dilutions and incubated for 60 min. at 25° C. Plates were washed for 1 cycle, HRP-goat anti-mouse) (1:2,000 dilution) was added at 0.05 mL/well and incubated for 60 min at 25° C. Plates were washed for 1 cycles. ABTS substrate was added at 0.05 mL/well and incubated 10 min at 25 C. Plates read at) or A_{405 nm}. [0223]
A general note: An ELISA detects its analyte on a solid surface through an enzyme-linked reagent.

B1: mouse anti human TSLPR antibody 13H5 (antibody, mouse IgG1, V domains shown)
VH: QVLLKQSGPSLVQPSQSLSITCTVSGFSLSRYGVHWVRQSPGKGLEWLGVIWRSGSTDYNAAFMSRLSITQDNSKSQVFFNMNSLQSDDSAIYYCAKKAFYVMDYWGQGTSVTVSS
VL: DIQMTQTTSSLSASLGDRVTISCRASQDISIYLNWYQQKPDGTVKLLIYYTSRLHSGVPSRFSGSGSGTNFSLTITNLEEEDIATYFCQQGNTLPWTFGGGTKLEIKR
notes: Mouse IgG1/kappa purified from hybridoma supernatant; also called m13H5; LB55.13H5.2C3
As to B1, in test [1], the “Avg IC50, inhibition of hTSLP-induced proliferation of Ba/F3-huTSLPR cells” value was 0.0121 µg/mL; the “IC50 Assay I, Ba/F3-huTSLPR proliferation” value was 0.0127 µg/mL; the “IC50 Assay II, Ba/F3-huTSLPR proliferation” value was found to be 0.014 µg/mL; the “IC50 Assay III, Ba/F3-huTSLPR proliferation” value is 0.0097 µg/mL. For the same molecule, in test [2], the “Avg IC50, Ba/F3-cyTSLPR proliferation” value is 0.0129 µg/mL; the “IC50 Assay I, Ba/F3-cyTSLPR proliferation” value was found to be 0.0104 µg/mL; the “IC50 Assay II, Ba/F3-cyTSLPR proliferation” value was 0.0148 µg/mL; the “IC50 Assay III, Ba/F3-cyTSLPR proliferation” value was 0.0134 µg/mL. Further, in the test with cTSLPR-Ig [3], the Kd came out at 89 pM; the koff (commonly the rate constant with which the complex falls apart) amounted to 7.1e-05 s⁻¹; the kon (as a rule, a measure of how fast the partners come together) was 800000 M⁻¹ s⁻¹. For the same molecule, in the test with cTSLPR-Ig [4], the EC50 – broadly, the concentration at which the effect is half-maximal – was > 0.001 µg/mL.

The values are drawn from US20110020369A1 (SCHERING, published 2011).
